According to article PMC12903045:

Target: NaV1.5 (main cardiac voltage-gated sodium channel) (mouse (endogenous in heart)) (UniProt Q9JJV9)
Experiment: co-IP

Sequence of UniProt Q9JJV9 (Q9JJV9 whole entry): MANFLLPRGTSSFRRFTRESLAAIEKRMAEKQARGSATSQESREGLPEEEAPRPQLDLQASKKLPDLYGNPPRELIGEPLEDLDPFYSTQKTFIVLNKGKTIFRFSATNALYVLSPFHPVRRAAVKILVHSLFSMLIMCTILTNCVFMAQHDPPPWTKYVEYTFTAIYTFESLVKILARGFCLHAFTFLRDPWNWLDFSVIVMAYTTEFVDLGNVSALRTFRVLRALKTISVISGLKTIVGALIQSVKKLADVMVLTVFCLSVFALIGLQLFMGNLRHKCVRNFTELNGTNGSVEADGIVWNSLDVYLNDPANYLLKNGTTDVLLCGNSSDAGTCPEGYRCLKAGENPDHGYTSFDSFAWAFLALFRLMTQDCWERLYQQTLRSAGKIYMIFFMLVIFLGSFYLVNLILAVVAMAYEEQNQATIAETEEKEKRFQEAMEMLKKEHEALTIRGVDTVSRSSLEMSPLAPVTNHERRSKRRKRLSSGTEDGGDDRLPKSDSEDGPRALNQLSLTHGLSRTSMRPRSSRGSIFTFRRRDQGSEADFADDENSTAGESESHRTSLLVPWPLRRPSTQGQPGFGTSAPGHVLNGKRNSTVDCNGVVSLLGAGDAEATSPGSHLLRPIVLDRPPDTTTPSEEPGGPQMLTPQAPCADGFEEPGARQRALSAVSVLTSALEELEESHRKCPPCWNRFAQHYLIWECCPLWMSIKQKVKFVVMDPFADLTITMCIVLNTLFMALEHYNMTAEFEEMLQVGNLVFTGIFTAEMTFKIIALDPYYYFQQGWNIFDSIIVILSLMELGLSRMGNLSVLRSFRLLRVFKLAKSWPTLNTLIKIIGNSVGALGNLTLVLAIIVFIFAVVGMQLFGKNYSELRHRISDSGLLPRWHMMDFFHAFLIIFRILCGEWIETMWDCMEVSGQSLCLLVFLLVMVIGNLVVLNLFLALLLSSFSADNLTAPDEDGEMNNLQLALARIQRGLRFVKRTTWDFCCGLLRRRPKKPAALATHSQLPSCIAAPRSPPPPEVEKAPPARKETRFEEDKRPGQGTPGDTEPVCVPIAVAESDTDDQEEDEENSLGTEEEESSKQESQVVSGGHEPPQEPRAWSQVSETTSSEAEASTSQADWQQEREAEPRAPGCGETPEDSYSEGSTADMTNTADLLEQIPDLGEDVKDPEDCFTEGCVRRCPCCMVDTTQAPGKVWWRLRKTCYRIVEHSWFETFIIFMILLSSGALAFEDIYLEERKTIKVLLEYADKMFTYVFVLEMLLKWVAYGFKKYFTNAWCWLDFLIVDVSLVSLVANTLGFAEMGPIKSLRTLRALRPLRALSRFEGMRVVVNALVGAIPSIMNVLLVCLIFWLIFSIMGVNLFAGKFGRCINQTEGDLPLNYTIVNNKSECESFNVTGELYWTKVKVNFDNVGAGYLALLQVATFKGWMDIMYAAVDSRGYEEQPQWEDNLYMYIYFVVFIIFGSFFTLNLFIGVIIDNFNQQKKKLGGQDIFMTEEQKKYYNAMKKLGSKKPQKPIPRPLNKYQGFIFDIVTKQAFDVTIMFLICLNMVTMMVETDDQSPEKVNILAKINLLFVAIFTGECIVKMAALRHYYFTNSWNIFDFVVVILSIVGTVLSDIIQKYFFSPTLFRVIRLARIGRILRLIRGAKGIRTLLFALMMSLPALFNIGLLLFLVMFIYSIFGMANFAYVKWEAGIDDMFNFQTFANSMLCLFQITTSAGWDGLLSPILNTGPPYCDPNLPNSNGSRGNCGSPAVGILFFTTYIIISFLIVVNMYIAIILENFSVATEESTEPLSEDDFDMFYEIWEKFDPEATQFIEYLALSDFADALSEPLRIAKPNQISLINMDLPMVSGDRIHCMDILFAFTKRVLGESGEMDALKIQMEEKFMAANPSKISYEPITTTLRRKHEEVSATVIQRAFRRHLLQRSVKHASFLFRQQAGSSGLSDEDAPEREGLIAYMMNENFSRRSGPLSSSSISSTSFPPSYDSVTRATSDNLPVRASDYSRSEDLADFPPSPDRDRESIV

FGF13 (fibroblast growth factor homologous factor 13) (from UniProt P70377 1-245) (natural protein)
percent of FGF13 depleted from the lysate by immunoprecipitation of NaV1.5: 35%
